# Results: patent US20210206856A1 (PANDION OPERATIONS, published 2021)
# Numbering of substitutions follows the chain as printed.
# T1: recombinant mouse MAdCAM-1 (mouse, UniProt Q61826 22-365, limits assumed)
# T1 construct: also called mMAdCAM-1; mouse MAdCAM-Fc
# T1 sequence (looked up): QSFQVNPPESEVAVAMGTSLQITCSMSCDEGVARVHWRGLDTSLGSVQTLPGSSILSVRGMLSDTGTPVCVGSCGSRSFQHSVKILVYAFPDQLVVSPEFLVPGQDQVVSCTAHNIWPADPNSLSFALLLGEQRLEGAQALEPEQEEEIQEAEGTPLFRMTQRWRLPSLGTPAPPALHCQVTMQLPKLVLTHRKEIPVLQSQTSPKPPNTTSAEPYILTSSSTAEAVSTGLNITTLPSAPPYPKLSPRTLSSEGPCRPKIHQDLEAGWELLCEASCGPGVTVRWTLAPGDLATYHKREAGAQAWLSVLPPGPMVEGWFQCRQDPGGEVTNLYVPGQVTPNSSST
# T2: human MAdCAM expressed on cells (human, UniProt Q13477 19-382)
# T2 construct: whole, on cells; also called MADCAM1
# T2 sequence (looked up): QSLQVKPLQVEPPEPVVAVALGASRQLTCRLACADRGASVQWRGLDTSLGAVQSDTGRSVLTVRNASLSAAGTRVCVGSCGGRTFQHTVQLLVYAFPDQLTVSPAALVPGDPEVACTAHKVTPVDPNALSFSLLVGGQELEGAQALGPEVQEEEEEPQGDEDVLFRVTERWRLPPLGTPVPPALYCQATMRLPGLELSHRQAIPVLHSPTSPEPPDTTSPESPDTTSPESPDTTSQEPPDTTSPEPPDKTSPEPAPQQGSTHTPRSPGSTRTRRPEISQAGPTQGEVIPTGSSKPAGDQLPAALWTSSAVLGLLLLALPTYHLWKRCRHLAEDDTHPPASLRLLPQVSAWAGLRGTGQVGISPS
# T3: mouse MAdCAM expressed on cells (mouse, UniProt Q61826 22-405)
# T3 construct: whole, on cells
# T3 sequence (looked up): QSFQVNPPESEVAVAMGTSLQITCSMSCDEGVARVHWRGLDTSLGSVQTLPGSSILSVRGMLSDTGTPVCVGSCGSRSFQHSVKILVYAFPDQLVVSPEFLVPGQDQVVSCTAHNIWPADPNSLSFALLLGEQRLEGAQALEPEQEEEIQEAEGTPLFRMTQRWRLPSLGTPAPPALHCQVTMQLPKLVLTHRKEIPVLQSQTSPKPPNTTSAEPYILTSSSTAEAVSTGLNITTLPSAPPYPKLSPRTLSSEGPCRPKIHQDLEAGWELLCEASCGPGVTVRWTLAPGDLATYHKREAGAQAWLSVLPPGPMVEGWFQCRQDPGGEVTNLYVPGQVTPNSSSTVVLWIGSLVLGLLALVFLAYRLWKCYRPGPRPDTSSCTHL
# B1: MAdCAM Antibody Table 2 Clone 14 (antibody, human IgG1, V domains shown)
# VH: QVQLVQSGAEVKKPGSSVKVSCKASGYTFTNYYMHWVRQAPGQGLEWMGGIIPIVDGVKYAQKFQGRVTITADESTSTAYMELSSLRSEDTAVYYCAKGQFTGNYYYGMDYWGQGTLVTVSS
# VL: DIQMTQSPSSLSASVGDRVTITCQANQDISNYLNWYQQKPGKAPKLLIYRASKLEAGVPSRFSGSGSGTDFTLTISSLQPEDFATYYCQQSSEIPYSFGQGTKVEIK
# B2: MAdCAM Antibody Table 2 Clone 20 (antibody, human IgG1, V domains shown)
# VH: EVQLLESGGGLVQPGGSLRLSCAASGFTFSDSAMHWVRQAPGKGLEWVSAISGSGSTIYYADSVKGRFTISRDNSKNTLYLQMNSLRAEDTAVYYCVSDIAVAGHWYFDLWGRGTLVTVSS
# VL: DIQMTQSPSSLSASVGDRVTITCRASQSISTFLNWYQQKPGKAPKLLIYAASRLEGGVPSRFSGSGSGTDFTLTISSLQPEDFATYYCQQANSFPLTFGPGTKVDIK
# B3: MAdCAM Antibody Table 2 Clone 6 (antibody, human IgG1, V domains shown)
# VH: EVQLLESGGGLVQPGGSLRLSCAASGFTFNNYAFHWVRQAPGKGLEWVSRINSYGTSTTYADSVKGRFTISRDNSKNTLYLQMNSLRAEDTAVYYCAREGPVAGYWYFDLWGQGTLVTVSS
# VL: DIQMTQSPSSLSASVGDRVTITCRASQIIGTNLAWYQQKPGKAPKLLIYGASSLQSGVPSRFSGSGSGTDFTLTISSLQPEDFATYYCQQSYRLPFTFGQGTKVEIK
# B4: MAdCAM Antibody Table 2 Clone 28 (antibody, human IgG1, V domains shown)
# VH: EVQLLESGGGLVQPGGSLRLSCAASGFTFSSYAMSWVRQAPGKGLEWVSYISSSSTYTNYADSVKGRFTISRDNSKNTLYLQMNSLRAEDTAVYYCARANSSSWYDWYFDLWGQGTLVTVSS
# VL: not shown
# B5: MAdCAM Antibody Table 2 Clone 17 (antibody, human IgG1, V domains shown)
# VH: QVQLVQSGAEVKKPGSSVKVSCKASGYTFTDYHIHWVRQAPGQGLEWMGGIVPRSGSTTYAQKFQGRVTITADESTSTAYMELSSLRSEDTAVYYCAKDESSGWYYFDYWGQGTLVTVSS
# VL: DIVMTQSPLSLPVTPGEPASISCRSSQSLLHSNGYNYLDWYLQKPGQSPQLLIYSAYNRASGVPDRFSGSGSGTDFTLKISRVEAEDVGVYYCMQALQTPLTFGQGTKVEIK
# B6: MAdCAM Antibody Table 1 Clone 2 (scFv)
# scFv: QVQLVQSGAEVKKPGASVKVSCKASGYPFIGYYLHWVRQAPGQGLEWMGIINPSGGSTSYAQKFQGRVTMTRDTSTSTVYMELSSLRSEDTAVYYCAREGRLSYGMDAWGQGTLVTVSSGGGGSGGGGSGGGGSGGGGSDIQMTQSPSSLSASVGDRVTITCRASQSISSYLAWYQQKPGKAPKLLIYGASTLESGVPSRFSGSGSGTDFTLTISSLQPEDFATYYCQQTWGPPFTFGQGTKLEIK
# B7: MAdCAM Antibody Table 1 Clone 3 (scFv)
# scFv: B6 scFv with Y32Q
# B8: MAdCAM Antibody Table 1 Clone 65 (scFv)
# scFv: QVQLVQSGAEVKKPGASVKVSCKASGYTFTRHWIHWVRQAPGQGLEWMGWINVKTGGAGYAQKFQGRVTMTRDTSTSTVYMELSSLRSEDTAVYYCARESSGWYGTDVWGQGTTVTVSSGGGGSGGGGSGGGGSGGGGSDIQMTQSPSSLSASVGDRATITCRASQSISNYLAWYQQKPGKAPKLLIYAASSLQSGVPSRFSGSGSGTDFTLTISSLQPEDFATYYCQQSNSFPLTFGGGTKVEIK
# B9: MAdCAM Antibody Table 1 Clone 63 (scFv)
# scFv: EVQLLESGGGLVKPGGSLRLSCAASGFTFDDYAMHWVRQAPGKGLEWVASITSSSAFIDYAASVKGRFTISRDDSKNTLYLQMNSLKTEDTAVYYCARERVDWNSYFDLWGRGTLVTVSSGGGGSGGGGSGGGGSGGGGSEIVMTQSPATLSVSPGERATLSCRASQGISNSYLAWYQQKPGQAPRLLIYGASTRATGIPARFSGSGSGTEFTLTISSLQSEDFAVYYCQQYYTYPPTFGPGTKVDIK
# B10: MAdCAM Antibody Table 1 Clone 7 (scFv)
# scFv: QVQLVQSGAEVKKPGASVKVSCKASGYTFTGYHIHWVRQAPGQGLEWMGIINPSGGSTIYAQKFQGRVTMTRDTSTSTVYMELSSLRSEDTAVYYCAKDWSSWYLGPFDYWGQGTLVTVSSGGGGSGGGGSGGGGSGGGGSDIQMTQSPSSLSASVGDRVTITCRASQNISSSLNWYQQKPGKAPKLLIYAASSLQSGVPSRFSGSGSGTDFTLTISSLQPEDFATYYCQQSYTTPYTFGQGTKVEIK
# B11: MAdCAM Antibody Table 1 Clone 64 (scFv)
# scFv: EVQLLESGGGLVKPGGSLRLSCAASGFAFSSHWMHWVRQAPGKGLEWVAGTSGSGESRDYADFVKGRFTISRDDSKNTLYLQMNSLKTEDTAVYYCARETYYYYYMDVWGKGTTVTVSSGGGGSGGGGSGGGGSGGGGSDIQMTQSPSSLSASVGDRVTITCRASQGISNYLAWYQQKPGKAPKLLIYDAANLEGGVPSRFSGSGSGTDFTLTISSLQPEDFATYYCQQSDIFPPTFGQGTKVEIK
# B12: MAdCAM Antibody Table 1 Clone 61 (scFv)
# scFv: EVQLLESGGGLVQPGGSLRLSCAASEFTFSNAWMSWVRQAPGKGLEWVASISSTSAYIDYADSVKGRFTISRDNSKNTLYLQMNSLRAEDTAVYYCAREVVGATTFDYWGQGTLVTVSSGGGGSGGGGSGGGGSGGGGSDIQMTQSPSSLSASVGDRVTITCRASQSISTWLAWYQQKPGKAPKLLIYAASSLQSGVPSRFSGSGSGTDFTLTISSLQPEDFATYYCQQANAFPPTFGQGTRLEIK
# B13: MAdCAM Antibody Table 1 Clone 5 (scFv)
# scFv: EVQLLESGGGLVQPGGSLRLSCAASGFTFSSYWMHWVRQAPGKGLEWVSSISPGGSNIDYADSVKGRFTISRDNSKNTLYLQMNSLRAEDTAVYYCAREVQLSHYDYWGQGTLVTVSSGGGGSGGGGSGGGGSGGGGSDIQMTQSPSSLSASVGDRVTITCRASQGISNSLAWYQQKPGKAPKLLIYGASSLQSGVPSRFSGSGSGTDFTLTISSLQPEDFATYYCQQANSFPFTFGQGTKVEIK
# B14: MAdCAM Antibody Table 1 Clone 4 (scFv)
# scFv: QVQLVQSGAEVKKPGASVKVSCKASGGTFSSYAISWVRQAPGQGLEWMGSINPSGDTTSYAQKFQGRVTMTRDTSTSTVYMELSSLRSEDTAVYYCAKDKAQWLVGYFDYWGQGTLVTVSSGGGGSGGGGSGGGGSGGGGSDIQMTQSPSSLSASVGDRVTITCQASQDISNSLNWYQQKPGKAPKLLIYAASSLQSGVPSRFSGSGSGTDFTLTISSLQPEDFATYYCQQSYSSVITFGQGTKVEIK
# B15: MAdCAM Antibody Table 1 Clone 11 (scFv)
# scFv: QVQLVQSGAEVKKPGASVKVSCKASGYTFTTYYMHWVRQAPGQGLEWMGGFDPEDGETIYAQKFQGRVTMTRDTSTSTVYMELSSLRSEDTAVYYCARHAVAGAVGAGYYYYGMDVWGQGTMVTVSSGGGGSGGGGSGGGGSGGGGSDIQMTQSPSSLSASVGDRVTITCRASESISNWLAWYQQKPGKAPKLLIYAASTLQSGVPSRFSGSGSGTDFTLTISSLQPEDFATYYCQQSYSVPFTFGPGTKVDIK
# B16: MAdCAM Antibody Table 1 Clone 66 (scFv)
# scFv: EVQLLESGGGLVQPGGSLRLSCAASGFTFSSYWMHWVRQAPGKGLEWVAAISYDGKYKDYEDSVKGRFTISRDNSKNTLYLQMNSLRAEDTAVYYCARENKQWLASFDYWGQGTLVTVSSGGGGSGGGGSGGGGSGGGGSDIQMTQSPSSLSASVGDRVTITCQASQDISNFVNWYQQKPGKAPKLLIYAANLRSGVPSRFSGSGSGTDFTLTISSLQPEDFATYYCQQANSFPVTFGPGTKVDIK
# Target: T1, recombinant mouse MAdCAM-1
# Assay: Octet
row,binding result,Binder
1,no binding,B1
2,no binding,B2
3,no binding,B3
4,no binding,B4
5,no binding,B5

# Target: T2, human MAdCAM expressed on cells
# Assay: cell binding
row,binding result,Binder
1,binds,B6
2,binds,B7
3,binds,B8
4,binds,B9
5,binds,B10
6,binds,B11
7,binds,B12
8,binds,B13
9,binds,B14
10,binds,B15
11,binds,B16

# Target: T3, mouse MAdCAM expressed on cells
# Assay: cell binding
row,binding result,Binder
1,binds,B6
2,binds,B7
3,binds,B8
4,binds,B9
5,binds,B10
6,binds,B11
7,binds,B12
8,binds,B13
9,binds,B14
10,no binding,B15
11,binds,B16

# Target: T2, human MAdCAM expressed on cells
# Assay: cell binding
# Remark: another data set of the same source
row,binding result,Binder
1,binds,B2
2,binds,B3
3,binds,B5

# Target: T3, mouse MAdCAM expressed on cells
# Assay: cell binding
# Remark: another data set of the same source
row,binding result,Binder
1,no binding,B1
2,no binding,B2
3,no binding,B3
4,no binding,B4
5,no binding,B5
